Molecular target: CD81 on Huh7.5 cells (human) (UniProt P60033)
Assay: cell-based or functional assay

Chain of UniProt P60033 (P60033 whole entry): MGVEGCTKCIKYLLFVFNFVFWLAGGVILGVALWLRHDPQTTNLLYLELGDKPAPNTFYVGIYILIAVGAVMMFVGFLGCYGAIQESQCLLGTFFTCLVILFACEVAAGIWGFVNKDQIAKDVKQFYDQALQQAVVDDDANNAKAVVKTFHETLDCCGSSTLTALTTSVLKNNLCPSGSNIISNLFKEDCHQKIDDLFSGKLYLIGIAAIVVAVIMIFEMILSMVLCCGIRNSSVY

Substance: anti-CD81 (JS-81, BD Biosciences, Pharmingen) (antibody)
- inhibition of infection of Huh7.5 cells with SA13/JFH1C3405G-A3696G virus (FFU count): 90 % inhibition

Source: US20110021611A1
